Experimental data as given in PMC8916728.

Columns and labels:
[1] = target: monoFc-tagged NRP2 (human neuropilin 2 a1a2b1b2, residues 23 to 595) (human) (UniProt O60462); experiment: BLI
[2] = target: NRP2 a2b1b2 (human neuropilin 2 residues 145 to 595, monomeric IgG1 Fc tag) (human) (UniProt O60462); experiment: BLI
Chain of NRP2 a2b1b2 (human neuropilin 2 residues 145 to 595, monomeric IgG1 Fc tag) (human) (O60462 145-595): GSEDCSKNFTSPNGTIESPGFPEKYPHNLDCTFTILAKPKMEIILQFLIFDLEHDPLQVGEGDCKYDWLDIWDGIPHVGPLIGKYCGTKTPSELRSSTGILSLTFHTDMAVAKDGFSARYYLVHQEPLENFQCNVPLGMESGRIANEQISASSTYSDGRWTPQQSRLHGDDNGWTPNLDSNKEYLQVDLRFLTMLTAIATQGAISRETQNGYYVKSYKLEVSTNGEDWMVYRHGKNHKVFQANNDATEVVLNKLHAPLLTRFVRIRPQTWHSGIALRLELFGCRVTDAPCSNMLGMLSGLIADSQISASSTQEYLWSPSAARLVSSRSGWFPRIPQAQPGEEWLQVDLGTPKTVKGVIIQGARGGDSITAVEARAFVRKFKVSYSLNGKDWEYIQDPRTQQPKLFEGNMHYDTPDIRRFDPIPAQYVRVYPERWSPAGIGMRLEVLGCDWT

Chain of monoFc-tagged NRP2 (human neuropilin 2 a1a2b1b2, residues 23 to 595) (human) (O60462 23-595): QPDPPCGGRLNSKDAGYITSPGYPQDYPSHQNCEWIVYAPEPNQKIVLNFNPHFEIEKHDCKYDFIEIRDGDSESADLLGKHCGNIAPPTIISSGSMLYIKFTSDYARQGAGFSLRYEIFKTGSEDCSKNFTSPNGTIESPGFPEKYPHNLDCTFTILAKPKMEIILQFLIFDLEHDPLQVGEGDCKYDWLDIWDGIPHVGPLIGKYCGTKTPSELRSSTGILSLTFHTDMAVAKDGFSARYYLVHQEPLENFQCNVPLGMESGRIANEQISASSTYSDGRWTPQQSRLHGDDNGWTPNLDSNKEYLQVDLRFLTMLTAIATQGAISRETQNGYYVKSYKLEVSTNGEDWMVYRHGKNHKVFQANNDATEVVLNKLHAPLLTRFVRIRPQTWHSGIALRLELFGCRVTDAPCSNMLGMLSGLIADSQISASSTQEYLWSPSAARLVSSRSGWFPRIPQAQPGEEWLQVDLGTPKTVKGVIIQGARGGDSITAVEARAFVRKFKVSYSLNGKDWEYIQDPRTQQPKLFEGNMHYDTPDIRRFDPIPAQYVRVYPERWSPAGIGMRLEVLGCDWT

Substance “soluble ectodomain of the HCMV Pentamer (strain Towne) (from UniProt P17176 24-718) (complex)” has a Kd [1] of 2.2 nM and a Kd [2] of 7.9 nM.
